Reference: the supplement of paper PMC10724198
± gives the standard deviation of the averaged measurements.

Test system: Saccharomyces cerevisiae
Experiment: protein stability index of tFT-peptide fusion (C-terminal peptide) (PSI (0-1 scale)); higher = more stable (slower turnover)
Details: genetic background: wild type; temperature: 30 C
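Note: PSI is a weighted mean of sequencing reads over stability bins, variants kept only with over 10 reads, mCherry proximal and sfGFP distal, peptide attached via GGGS linker.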

Sequence	protein stability index
SCLRCSCLTEVL	0.614 ± 0.021
SCPHPAPPPPPP	0.677 ± 0.023
SCPPSFIPVLSP	0.667 ± 0.035
SCPSRLFLSFRG	0.683 ± 0.034
SCRGKTRPASGR	0.64 ± 0.027
SCSLPCPRLPSD	0.719 ± 0.15
SCSVGRRIGLGQ	0.688 ± 0.061
SCVFPSSCFVLI	0.607 ± 0.019
SCVGCLYMYWSL	0.6102 ± 0.0049
SCVLSYVASYAQ	0.66 ± 0.018
SCVSCACPVYWR	0.662 ± 0.065
SDKKGQKLKESQ	0.693 ± 0.044
SDKNNRFGRVRV	0.674 ± 0.072
SDLDFSRLHGSA	0.698 ± 0.056
SDMTHRSCTLLC	0.633 ± 0.028
SDVAGRCFFVVI	0.589 ± 0.033
SDVLSFYGGVEC	0.742 ± 0.026
SEALRGVQFLSC	0.684 ± 0.054
SECFARSSSPRA	0.7129 ± 0.0041
SEFDSVSRIVYY	0.705 ± 0.048
SEGSLIPGSHIA	0.733 ± 0.066
SERKAKAEVAEA	0.692 ± 0.064
SFARMTAIPGLR	0.661 ± 0.029
SFFCSKCPLLCP	0.533 ± 0.016
SFFLALSIRLPN	0.609 ± 0.0042
SFFPPFHLLFSY	0.532 ± 0.025

Sequence	protein stability index
SFFTLDRHPSYD	0.715 ± 0.023
SFGLGGSFFWVG	0.7 ± 0.035
SFGLSAGGDDRW	0.74 ± 0.016
SFGTLPLNSTAS	0.644 ± 0.029
SFGVDPDNCVGF	0.607 ± 0.061
SFNDVPPPEGIK	0.67 ± 0.038
SFPAPPSPPPLP	0.702 ± 0.081
SFRCLGFTSSRV	0.681 ± 0.05
SFRFCSNRFTRL	0.699 ± 0.056
SFRLLCPPPPLP	0.6805 ± 0.0046
SFRPPPPSSFPA	0.745 ± 0.019
SFSFLLSLSFLP	0.529 ± 0.017
SFSLAGFVCCVI	0.6002 ± 0.0045
SFSSHRSPPPPL	0.698 ± 0.13
SFSSPPPTLVPP	0.693 ± 0.038
SFTSSFPGSSPS	0.703 ± 0.058
SFVLFAGPVFFW	0.655 ± 0.025
SFVSRSRLAEVD	0.682 ± 0.073
SFYFSAFYPSIV	0.667 ± 0.013
SFYIMSIQRKAK	0.681 ± 0.052
SGASFLKVGLSV	0.6812 ± 0.0032
SGASPSPPRTLS	0.7493 ± 0.0017
SGAVGSTNYGTR	0.743 ± 0.018
SGAVVIPCTFER	0.669 ± 0.025
SGGCGWGAGVRV	0.778 ± 0.02
SGGGSSSGKGIR	0.715 ± 0.091

Sequence	protein stability index
SGGRCVGVGGVV	0.658 ± 0.028
SGGRPVQSWCAW	0.779 ± 0.29
SGGSGGSCMRYV	0.691 ± 0.025
SGLERGCSRCWH	0.687 ± 0.0088
SGLSFPPLYSLL	0.715 ± 0.092
SGLVCDGSSGGV	0.635 ± 0.0083
SGRPEGERAPEQ	0.728 ± 0.06
SGRVGRGAADWR	0.681 ± 0.029
SGRVMRAFSCGV	0.6228 ± 0.0036
SGSFAIYCSVSF	0.611 ± 0.045
SGSGCSDRRPSR	0.699 ± 0.02
SGSSIAVLPTPC	0.747 ± 0.11
SGTFACCLGVCL	0.6806 ± 0.0062
SGVILWSAWRDG	0.7029 ± 0.0014
SGVLSLVDVWTG	0.747 ± 0.1
SGVRAAGEGDSE	0.735 ± 0.033
SGVRGRGSFWSV	0.664 ± 0.04
SHHSVNWKPQGL	0.668 ± 0.025
SHIAIEKLHSKN	0.709 ± 0.056
SHPTLCSFSPPA	0.686 ± 0.035
SHRRSMTNNKAK	0.705 ± 0.01
SIFVNICRRMKC	0.616 ± 0.014
SIIIRVTQSGSG	0.6414 ± 0.0056
SIIRDKERNNYK	0.654 ± 0.015
SIISRVLDAMAK	0.724 ± 0.21
SILQINRDNVMR	0.742 ± 0.02

Sequence	protein stability index
SILWRCEEEIRR	0.736 ± 0.029
SINPRVYFVDCQ	0.689 ± 0.034
SIPSPLVPPLTR	0.72 ± 0.04
SIPVHGPCNRVV	0.671 ± 0.025
SIRTKVVRNVVS	0.625 ± 0.087
SKKNKNIQKHLY	0.728 ± 0.011
SKKSKTQSNKNQ	0.683 ± 0.02
SKPTQQNRRPDG	0.596 ± 0.028
SKQNNIEMKKYK	0.741 ± 0.036
SKTQRAQSGNSA	0.699 ± 0.054
SLAGLLPCRLTP	0.621 ± 0.023
SLAGWPPPSIST	0.686 ± 0.013
SLAPLPLIVLFL	0.487 ± 0.023
SLCCPLHQTRFR	0.684 ± 0.046
SLDLALLSPFFG	0.679 ± 0.029
SLENRFGGFYVG	0.749 ± 0.066
SLEWGGGRRWPI	0.719 ± 0.023
SLFPPPLLLSAS	0.574 ± 0.0095
SLFSFLPRLYSH	0.627 ± 0.023
SLFSVLSPPYPS	0.653 ± 0.032
SLGAHHAAFRVV	0.63 ± 0.044
SLGGCVMCGTTL	0.708 ± 0.029
SLGGLVSGPGLV	0.687 ± 0.032
SLGGRVAGGWRD	0.645 ± 0.1
SLGLALSLRSSV	0.6361 ± 0.0054
SLGLHADLLSRT	0.672 ± 0.064

Sequence	protein stability index
SLGNTRRTKKSI	0.636 ± 0.054
SLGRYVDCLLGC	0.6463 ± 0.0044
SLGVVSHGASRP	0.693 ± 0.027
SLHPPPPPFRLS	0.753 ± 0.014
SLHSTPRPPAPG	0.705 ± 0.063
SLILRHLSPPTP	0.762 ± 0.15
SLIPLRLTLTRH	0.739 ± 0.023
SLKRRWPYPNRP	0.681 ± 0.011
SLLLMLPFPLPG	0.618 ± 0.028
SLLLPPRPPSPS	0.672 ± 0.017
SLLLPTPPPFRP	0.644 ± 0.028
SLLLSRPLSTSH	0.6945 ± 0.0031
SLLTSSPLPSPP	0.696 ± 0.043
SLPAFPPNTFMP	0.7 ± 0.017
SLPGVRVPRVGR	0.715 ± 0.059
SLPHSFIYYPLP	0.755 ± 0.037
SLPLPSPRPILR	0.64 ± 0.0092
SLPLVLHGHRLY	0.672 ± 0.027
SLPPAHPPPPRP	0.693 ± 0.026
SLPPFPVTSRHP	0.691 ± 0.011
SLPPSSPLPPVS	0.665 ± 0.035
SLPRPPPPASTP	0.623 ± 0.0068
SLPSPSPPSHPL	0.705 ± 0.033
SLPSSVAFLFPR	0.802 ± 0.17
SLQTRANTGLWT	0.689 ± 0.034
SLREIIRKSLGL	0.677 ± 0.022

Sequence	protein stability index
SLRILFDLRISL	0.605 ± 0.031
SLRLFSPILSSL	0.684 ± 0.011
SLRSSLFSPHHC	0.649 ± 0.044
SLRSSRSRIKKG	0.624 ± 0.086
SLRWVHVRGVLQ	0.702 ± 0.013
SLSDYKAYSKTI	0.65 ± 0.013
SLSGPDIRLKPF	0.673 ± 0.046
SLSGPRCFLHSP	0.681 ± 0.039
SLVLPPRPFPPF	0.746 ± 0.058
SLVLPSFSLFSR	0.728 ± 0.028
SLVLSFPLLSLP	0.697 ± 0.025
SLYPPPAPRASP	0.773 ± 0.036
SLYVRRCKEASK	0.6894 ± 0.0023
SMSRSPPPSPPL	0.669 ± 0.01
SMWKQIRVYGLW	0.636 ± 0.028
SNHIAPAFKIKQ	0.678 ± 0.0085
SNHTIIGNVVHF	0.7131 ± 0.0056
SNHYYFILSHFA	0.661 ± 0.0093
SNPLRPHLPPHF	0.714 ± 0.054
SNTKLIGGFFRD	0.646 ± 0.1
SPALSPDPSPSP	0.704 ± 0.037
SPALVRLSLPRP	0.86 ± 0.14
SPAPPPGVPPSR	0.687 ± 0.03
SPDCSLSPSVSG	0.684 ± 0.029
SPFCGVRFRFCY	0.632 ± 0.064
SPFGFPPPSPPA	0.6843 ± 0.003

Sequence	protein stability index
SPFPLSSLRPLP	0.7552 ± 0.0022
SPGPSPPSPIGP	0.61967 ± 0.00044
SPGTFLSLRMSI	0.703 ± 0.015
SPHLPPLPDPSP	0.576 ± 0.0069
SPISATISPSFR	0.728 ± 0.018
SPIVLTYHYLCR	0.666 ± 0.0087
SPLGPLGPPSET	0.693 ± 0.052
SPLLYPPPSTSI	0.715 ± 0.042
SPLPLFSPCPPP	0.693 ± 0.014
SPLPPPSLPRPP	0.641 ± 0.017
SPLRHLPGPSFP	0.696 ± 0.012
SPLSLPTRSCLL	0.7075 ± 0.0066
SPLTSSSLPPRT	0.691 ± 0.032
SPPAPACTSYSL	0.7018 ± 0.0019
SPPATPWPPDLR	0.627 ± 0.051
SPPFLPCLFHAS	0.687 ± 0.048
SPPFLPVPASSL	0.709 ± 0.027
SPPGYPGNPSPL	0.662 ± 0.021
SPPHSLSSSCSL	0.811 ± 0.05
SPPLFCSPPISP	0.719 ± 0.043
SPPLHPPPPFPL	0.769 ± 0.047
SPPLPACSPPLA	0.715 ± 0.035
SPPLPHLPTPTP	0.603 ± 0.14
SPPLPPLPSVAF	0.637 ± 0.16
SPPLPPPARLPA	0.615 ± 0.019
SPPLPRLSPLPN	0.6863 ± 0.0012

Sequence	protein stability index
SPPPAPSHPPSP	0.73 ± 0.05
SPPPGSRTFAFR	0.697 ± 0.042
SPPPIVPPPSPP	0.662 ± 0.12
SPPPLCCPPLAP	0.728 ± 0.023
SPPPLLLPLSPP	0.727 ± 0.047
SPPPLNTFPPLP	0.691 ± 0.025
SPPPLRFPPPPP	0.763 ± 0.13
SPPPNPPRPSSR	0.768 ± 0.014
SPPPPASPPAPP	0.648 ± 0.062
SPPPPHVPLSPS	0.712 ± 0.032
SPPPPPALPEYQ	0.6877 ± 0.0012
SPPPPPPPPPPL	0.757 ± 0.041
SPPPPPPRPLTP	0.672 ± 0.027
SPPPPSPRFPSP	0.678 ± 0.017
SPPPPTPLPPPP	0.6757 ± 0.0047
SPPPPVPSAGPL	0.7 ± 0.042
SPPPSPPPPLPP	0.5649 ± 0.0049
SPPRHPPPASPA	0.7128 ± 0.0035
SPPSPSTPPARP	0.747 ± 0.15
SPPSSPHPPPRT	0.693 ± 0.01
